Values quoted from earlier work as cited in patent publication US20140212945.

Molecular target: T1, MBNL1 (muscleblind-like 1 protein) (UniProt Q9NR56)
T1 sequence: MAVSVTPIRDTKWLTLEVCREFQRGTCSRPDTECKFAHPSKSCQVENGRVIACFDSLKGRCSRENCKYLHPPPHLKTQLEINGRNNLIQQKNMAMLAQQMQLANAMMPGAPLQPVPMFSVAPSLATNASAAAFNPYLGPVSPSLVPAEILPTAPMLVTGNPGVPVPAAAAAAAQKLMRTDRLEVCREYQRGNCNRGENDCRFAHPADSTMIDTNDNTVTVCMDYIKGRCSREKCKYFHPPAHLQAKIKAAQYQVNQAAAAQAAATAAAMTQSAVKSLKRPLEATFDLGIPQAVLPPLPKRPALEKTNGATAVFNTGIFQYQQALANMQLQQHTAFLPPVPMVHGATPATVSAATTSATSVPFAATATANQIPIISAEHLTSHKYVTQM
Settings: CITED; value taken from previous report (ref 15 / ref 13); Table 5 lists the same value for r(CUG)exp

Substance: r(CUG)12x2
- Kd: 250 nM
